B1: RIPK4 (parent)
chain: RERMELLEEAKKMEMAKFRYILPV

Variants of: B1
Assay: protein stability index of a GFP-peptide fusion (GPS, HEK-293T) (PSI 1-6); higher = more stable
Conditions: c terminus: a fixed tail appended
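Also: lentivirally expressed fusions sorted by FACS into six bins by GFP to DsRed ratio, PSI derived from sequencing read proportions per bin multiplied by bin number.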

Variant	protein stability index
I21G	3.68
I21L	3.42
I21W	2.05
I21H	2.94
I21K	3.45
I21R	3.2
I21N	3.85
I21Y	2.18
I21F	4.25
I21E	4.11
E14L	2.44
E14A	2.78
E14N	2.79
E14M	2.89
E14C	3.63
E14T	2.65
E14R	2.06
E14D	3.8
E14Y	2.03
E14Q	3.12
E14G	2.44
E14V	1.71
E14W	2.92
E14P	3.29

Variant	protein stability index
E14F	1.86
E14S	2.86
E14K	2.21
E14I	2.16
R19T	2.67
R19D	3.47
R19H	2.6
R19L	2.14
R19A	1.96
R19G	3.03
R19E	3.28
R19P	2.13
R19M	1.97
R19N	2.94
R19Y	2.38
R19Q	3.65
R19S	2.86
R19I	1.27
R19C	2.51
R19F	1.15
R19K	3.04
M15K	3.93
M15V	3.02
M15H	4.28

Variant	protein stability index
M15I	4.15
M15Q	3.34
M15Y	3.41
M15W	2
M15L	3.48
M15F	3.91
M15S	4.59
M15E	4.61
M15G	3.59
M15P	4.15
M15R	3.97
M13L	3.37
M13W	3.14
M13N	3.8
M13Y	2.92
M13T	3.06
M13K	3.84
M13H	3.13
M13G	3.56
M13E	3.19
M13V	2.85
M13Q	3.31
M13S	3.51
M13P	2.34

Variant	protein stability index
M13I	3.59
M13A	3.1
M13F	3.01
R3D	3.63
R3P	3.84
R3C	3.26
R3L	2.3
R3I	2.39
R3Y	3.25
R3G	2.58
R3M	2.7
R3S	3.85
R3N	3.18
R3E	4.38
R3T	3.68
R3W	1.73
R3V	2.42
R3A	3.48
R3H	3.89
R3F	2.58
R3Q	4.19
E2W	1.47
E2Y	2.74
A10L	3.33

Variant	protein stability index
A10Q	3.79
A10R	3.66
A10S	3.69
A10E	3.54
A10V	4.15
A10D	3.99
A10I	2.82
A10T	2.81
A10H	2.94
A10M	3.32
A10W	3.58
A10K	4.38
A10P	3.28
A10F	3.48
A10C	4.69
A10Y	3.93
A10N	3.85
K17A	1.87
K17L	2.04
K17F	1.26
K17M	3.5
K17H	2.68
K17T	3.1
K17C	2.01

Variant	protein stability index
K17G	2.94
K17N	1.01
K17V	2.75
K17I	2.72
K17S	2.99
K17P	1.86
K17W	2.29
K17D	2.84
K17Y	2.8
K17Q	3.5
E9W	2.16
E9R	2.4
E9D	3.91
E9G	3.79
E9Q	3.31
E9M	2.78
E9K	3.65
E9T	2.93
E9H	2.8
E9C	2.12
E9N	3.44
E9V	2.43
E9P	3.42
E9Y	2.49

Variant	protein stability index
E9S	3.08
E9L	1.94
E9I	2.57
E9F	2.37
E9A	2.85
F18P	3.86
F18N	4.03
F18G	3.69
F18Q	3.61
F18C	2.75
F18M	2.75
F18A	3.16
F18I	2.79
F18E	3.55
F18T	3.81
F18K	4.06
L22S	3.28
L22K	4.1
L22R	4.07
L22M	3.57
L22Q	3.69
L22W	2.53
L22A	4.27
L22P	4.95

Variant	protein stability index
L22I	5.51
L22N	3.07
P23K	1.83
P23D	2.03
P23R	3.69
P23I	2.09
P23M	2
P23S	3.96
P23Q	1.69
P23G	1.95
P23E	2.7
P23N	1.63
P23H	2.9
P23C	3.02
P23V	2.29
E5W	2.23
E5L	2.75
E5K	2.36
E5H	1.99
E5T	2.34
E5R	2.97
E5C	2.63
E5F	2.81
E5G	2.6

Variant	protein stability index
E5Y	2.29
E5I	2.26
E5M	3.12
E5V	2.29
E5N	2.87
E5A	2.9
E5P	3.01
E5S	2.11
K12G	2.36
K12A	3.43
K12V	2.82
K12N	3.23
K12L	2.21
K12M	2.78
K12S	2.75
K12D	3.3
K12I	2.37
K12H	3.36
K12Y	2.42
K12W	2.65
K12Q	3.41
K12E	3.46
K12T	2.9
K12F	2.5

Variant	protein stability index
K12C	3.35
K12P	3.5
K11S	3.37
K11I	2.39
K11L	4.66
K11R	2.81
K11G	3.04
K11V	2.32
K11E	3.97
K11Q	3.17
K11W	2.51
K11Y	1.08
K11D	4.09
K11H	3.05
K11M	2.45
K11N	3.08
K11A	3.07
K11P	2.91
K11F	2.67
K11C	2.24
V24D	3.64
M4K	3.74
M4Q	3.76
M4Y	2.82

Variant	protein stability index
M4C	3.69
M4W	2.81
M4T	3.53
M4A	3.99
M4N	3.94
M4I	3.08
M4P	3.8
M4E	3.67
M4D	4.17
M4S	3.59
M4V	2.88
M4H	3.21
M4G	5.3
L6V	2.9
L6K	3.88
L6H	3.87
L6T	3.49
L6M	3.77
L6N	3.66
L6W	3
L6C	3.05
L6G	3.54
L6R	3.56
L6A	3.19

Variant	protein stability index
L6Q	3.08
L6Y	3.83
L6I	3.98
L6D	4.56
L6S	3.19
E8S	3.06
E8G	2.27
E8H	2.67
E8F	2.68
E8D	2.86
E8N	2.04
E8M	2.69
E8C	3.01
E8V	1.69
E8W	3.05
E8Y	2.62
E8L	2.11
E8T	3.16
E8R	3.5
E8P	3.14
E8Q	2.03
E8I	2.11
E8K	3.42
A16T	2.85

Variant	protein stability index
A16V	3.03
A16I	3.02
A16C	2.54
A16F	2.29
A16N	4.29
A16P	3.49
A16K	3.8
A16Y	3.32
A16G	3.31
A16E	2.9
A16Q	3.62
A16H	4.27
A16W	2.58
L7T	4.19
L7I	3.42
L7M	3.48
L7Y	2.52
L7A	3.35
L7F	3.4
L7S	3.66
L7W	2.43
L7P	4.01
L7N	3.54
L7C	3.94

Variant	protein stability index
L7Q	3.87
L7E	3.74
L7V	2.78
L7D	3.43
L7K	3.99
Y20Q	2.34
Y20D	2.55
Y20N	3.05
Y20A	3.73
Y20G	3.74
Y20H	2.83
Y20I	1.93
Y20V	2.59
Y20T	3.4
Y20S	3.91
Y20W	2.24
Y20L	2.03
Y20E	4.16
Y20M	2.18
Y20F	2.27
Y20P	3.57
Y20C	2.67
